B1: CD4001184 (Fc fusion)
scFv: DIQMTQSPSSVSASVGDRVTITCRSSQSLLFSVNQKNYLAWYQQKPGKAPKLLIYWASTRESGVPDRFSGSGSGTDFTLTISSLQPEDFATYYCQHYYSYPWTFGQGTKVEIKGGGGSGGGGSGGGGSGGGGSQVQLVQSGAEVKKPGSSVKVSCKASGYTFSTSWIEWIRQAPGQGLEWIGSILPGSGSTNYNEKFKGKATFTADTSTSTAYMELSSLRSEDTAVYYCARGDDGSYVRWYFDHWGQGTLVTVSS
notes: humanized 1D5 variant; not shown: wild-type human IgG1 Fc and the Fc-to-scFv linker
B2: CD4001201 (Fc fusion)
scFv: B1 scFv with N194A, T207E
notes: humanized 1D5 variant; not shown: wildtype human IgG1 Fc and its linker to the scFv
B3: CD4001192 (Fc fusion)
scFv: B1 scFv with S25A, R60L, D66S, S158T
notes: humanized 1D5 variant; not shown: wild-type human IgG1 Fc and the Fc-scFv linker
B4: CD4001207 (Fc fusion)
scFv: B1 scFv with I181M, N194A, A201V, F203I, T207E
notes: as for B2
B5: CD4001195 (Fc fusion)
scFv: B1 scFv with E168S, I170V, S183G, N194A
notes: as for B3
B6: CD4001183 (Fc fusion)
scFv: B1 scFv with R60L, D66S, S158T
notes: as for B1
B7: CD4001203 (Fc fusion)
scFv: B1 scFv with E168S, I170V, I181M, S183G, N194A, A201V, F203I
notes: as for B2
B8: CD4001182 (Fc fusion)
scFv: B1 scFv with T59S, E61Q, S158T
notes: as for B1
B9: CD4001197 (Fc fusion)
scFv: B1 scFv with E168S, I170V, S183G, T207E
notes: as for B2
B10: CD4001204 (Fc fusion)
scFv: B1 scFv with E168S, I170V, I181M, S183G, E195Q, K198Q, K200R, A201V, F203I
notes: as for B2
B11: CD4001186 (Fc fusion)
scFv: B1 scFv with I181M, A201V, F203I
notes: as for B1
B12: CD4001187 (Fc fusion)
scFv: B1 scFv with N194A
notes: as for B3
B13: CD4001199 (Fc fusion)
scFv: B1 scFv with I181M, E195Q, K198Q, K200R, A201V, F203I
notes: as for B2
B14: CD4001185 (Fc fusion)
scFv: B1 scFv with E168S, I170V, S183G
notes: as for B1
B15: CD4001206 (Fc fusion)
scFv: B1 scFv with I181M, N194A, E195Q, K198Q, K200R, A201V, F203I
notes: as for B2
B16: CD4001190 (Fc fusion)
scFv: B1 scFv with S25A, T59S, E61Q, S158T
notes: as for B3
B17: CD4001196 (Fc fusion)
scFv: B1 scFv with E168S, I170V, S183G, E195Q, K198Q, K200R
notes: as for B3
B18: CD4001205 (Fc fusion)
scFv: B1 scFv with E168S, I170V, I181M, S183G, A201V, F203I, T207E
notes: as for B2
B19: CD4001181 (Fc fusion)
scFv: B1 scFv with S25A, S158T
notes: as for B1
B20: CD4001193 (Fc fusion)
scFv: B1 scFv with S25A, T59S, R60L, E61Q, D66S, S158T
notes: as for B3
B21: CD4001191 (Fc fusion)
scFv: B1 scFv with T59S, R60L, E61Q, D66S, S158T
notes: as for B3
B22: CD4001194 (Fc fusion)
scFv: B1 scFv with E168S, I170V, I181M, S183G, A201V, F203I
notes: as for B3
B23: CD4001047 (bispecific antibody)
scFv-Fc-scFv chain: DIVMTQSHKFMSTSVGDRVSITCKASQDVNTAVAWYQQKPGQSPKLLIYSASYRYTGVPDRFTGSGSGTDFTFTISSVQAEDLAVYYCQQHYSTPWTFGGGTKLEIKGGGGSGGGGSGGGGSGGGGSQVQLQQSGAELAKPGASVKMSCKASGYAFTTYWMHWVKQRPGQGLEWIGYINPTTGYTDYNQKFKDKATLTADKSSSTAYMQLSSLTSEDSAVYYCARWGLPPFAYWGQGTLVTVSAEPKSSDKTHTCPPCPAPPAAAPSVFLFPPKPKDTLMISRTPEVTCVVVDVSHEDPEVKFNWYVDGVEVHNAKTKPREEQYNSTYRVVSVLTVLHQDWLNGKEYKCAVSNKALPAPIEKTISKAKGQPREPQVYTLPPSRDELTKNQVSLTCLVKGFYPSDIAVEWESNGQPENNYKTTPPVLDSDGSFFLYSKLTVDKSRWQQGNVFSCSVMHEALHNHYTQKSLSLSPGGGGSPSEVQLVESGGGLVKPGGSLRLSCAASGFTFSDYGMAWVRQAPGKGLEWVAFITSLAYIIYYADSVKGRFTISRDNAKNSLYLQMNSLRAEDTAVYYCARNYGSSPYYFDYWGQGTLVTVSSGGGGSGGGGSGGGGSGGGGSDIQMTQSPSSLSASVGDRVTITCRASQDINKFLSWYQQKPGKAPKLLIHYTSSLQPGVPSRFSGSGSGTDFTLTISSLQPEDFATYYCLQYDNLYTFGQGTKLEIK
notes: also called CD40_2H7 x hFc x PDL_5F9
B24: CD4001070 (bispecific antibody)
Fc-Knob x PDL_5F9: EPKSSDKTHTCPPCPAPPAAAPSVFLFPPKPKDTLMISRTPEVTCVVVDVSHEDPEVKFNWYVDGVEVHNAKTKPREEQYNSTYRVVSVLTVLHQDWLNGKEYKCAVSNKALPAPIEKTISKAKGQPREPQVYTLPPSRDELTKNQVSLWCLVKGFYPSDIAVEWESNGQPENNYKTTPPVLDSDGSFFLYSKLTVDKSRWQQGNVFSCSVMHEALHNHYTQKSLSLSPGGGGSPSEVQLVESGGGLVKPGGSLRLSCAASGFTFSDYGMAWVRQAPGKGLEWVAFITSLAYIIYYADSVKGRFTISRDNAKNSLYLQMNSLRAEDTAVYYCARNYGSSPYYFDYWGQGTLVTVSSGGGGSGGGGSGGGGSGGGGSDIQMTQSPSSLSASVGDRVTITCRASQDINKFLSWYQQKPGKAPKLLIHYTSSLQPGVPSRFSGSGSGTDFTLTISSLQPEDFATYYCLQYDNLYTFGQGTKLEIK
CD40_2H7 x Fc-Hole x PDL_5F9: B23 scFv-Fc-scFv chain with T394S, L396A, Y435V, H463R, Y464F
B25: CD4001079 (bispecific antibody)
Fc-Knob x CD40_2H7: EPKSSDKTHTCPPCPAPPAAAPSVFLFPPKPKDTLMISRTPEVTCVVVDVSHEDPEVKFNWYVDGVEVHNAKTKPREEQYNSTYRVVSVLTVLHQDWLNGKEYKCAVSNKALPAPIEKTISKAKGQPREPQVYTLPPSRDELTKNQVSLWCLVKGFYPSDIAVEWESNGQPENNYKTTPPVLDSDGSFFLYSKLTVDKSRWQQGNVFSCSVMHEALHNHYTQKSLSLSPGGGGSPSDIVMTQSHKFMSTSVGDRVSITCKASQDVNTAVAWYQQKPGQSPKLLIYSASYRYTGVPDRFTGSGSGTDFTFTISSVQAEDLAVYYCQQHYSTPWTFGGGTKLEIKGGGGSGGGGSGGGGSGGGGSQVQLQQSGAELAKPGASVKMSCKASGYAFTTYWMHWVKQRPGQGLEWIGYINPTTGYTDYNQKFKDKATLTADKSSSTAYMQLSSLTSEDSAVYYCARWGLPPFAYWGQGTLVTVSA
PDL_5F9 x Fc-Hole x CD40_2H7: EVQLVESGGGLVKPGGSLRLSCAASGFTFSDYGMAWVRQAPGKGLEWVAFITSLAYIIYYADSVKGRFTISRDNAKNSLYLQMNSLRAEDTAVYYCARNYGSSPYYFDYWGQGTLVTVSSGGGGSGGGGSGGGGSGGGGSDIQMTQSPSSLSASVGDRVTITCRASQDINKFLSWYQQKPGKAPKLLIHYTSSLQPGVPSRFSGSGSGTDFTLTISSLQPEDFATYYCLQYDNLYTFGQGTKLEIKEPKSSDKTHTCPPCPAPPAAAPSVFLFPPKPKDTLMISRTPEVTCVVVDVSHEDPEVKFNWYVDGVEVHNAKTKPREEQYNSTYRVVSVLTVLHQDWLNGKEYKCAVSNKALPAPIEKTISKAKGQPREPQVYTLPPSRDELTKNQVSLSCAVKGFYPSDIAVEWESNGQPENNYKTTPPVLDSDGSFFLVSKLTVDKSRWQQGNVFSCSVMHEALHNRFTQKSLSLSPGGGGSPSDIVMTQSHKFMSTSVGDRVSITCKASQDVNTAVAWYQQKPGQSPKLLIYSASYRYTGVPDRFTGSGSGTDFTFTISSVQAEDLAVYYCQQHYSTPWTFGGGTKLEIKGGGGSGGGGSGGGGSGGGGSQVQLQQSGAELAKPGASVKMSCKASGYAFTTYWMHWVKQRPGQGLEWIGYINPTTGYTDYNQKFKDKATLTADKSSSTAYMQLSSLTSEDSAVYYCARWGLPPFAYWGQGTLVTVSA

The record followed here is patent US20260217833A1 (APTEVO RESEARCH AND DEVELOPMENT, published 2026).

Where a chain is given by its changes, count along the chain named.

T1 sequence (P25942 21-277): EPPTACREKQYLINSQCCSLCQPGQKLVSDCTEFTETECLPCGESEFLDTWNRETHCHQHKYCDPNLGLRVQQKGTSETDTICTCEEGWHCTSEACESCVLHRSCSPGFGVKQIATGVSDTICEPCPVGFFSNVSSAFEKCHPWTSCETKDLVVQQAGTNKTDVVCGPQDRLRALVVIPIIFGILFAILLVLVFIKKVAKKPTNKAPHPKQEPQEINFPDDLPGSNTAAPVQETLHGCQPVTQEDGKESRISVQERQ

The first test concerns the target T1, human CD40 full-length (human, UniProt P25942 21-277).
T1 construct: Also used for CD40 of Daudi cells, of CD40-expressing HEK293 cells and of the BPS CD40/NFkB HEK293 reporter cells where the row says so; also called CD4001012; CHOK1SV/CD40
As to the kind of experiment: flow cytometry, CHOK1SV/human CD40 cells. For orientation: In flow cytometry, cells or beads pass a laser one at a time.
For the molecule B1, the binding result is recorded as “binds”.
Same read-out and setting: the result for B2 reads “binds”.
In the case of B3, the binding result is on record as “binds”.
The same measure, in the same setting: the result for B4 reads “binds”; that for B5, “binds”.
On the same count and under the same terms, under B6 stands “binds”; under B7, “binds”.
On the same count and under the same terms, under B8 stands “binds”; under B9, “binds”; under B10, “binds”.
On to B11, for which the binding result was “binds”.
In the case of B12, the binding result is “binds”.
The same measure, in the same setting: under B13 stands “binds”; under B14, “binds”.
Same read-out and setting: under B15 stands “binds”; under B16, “binds”.
For the molecule B17, the binding result is recorded as “binds”.
The same measure, in the same setting: under B18 stands “binds”; under B19, “binds”; under B20, “no binding (tested: 300 nM)”.
For the molecule B21, the binding result is on record as “binds”.
On the same count and under the same terms, the result for B22 reads “binds”.

In the next test the target is T2, Human PD-L1 full-length (human, UniProt Q9NZQ7 19-290).
T2 construct: also called PDL01021; CHOK1SV/huPDL1
T2 sequence (Q9NZQ7 19-290): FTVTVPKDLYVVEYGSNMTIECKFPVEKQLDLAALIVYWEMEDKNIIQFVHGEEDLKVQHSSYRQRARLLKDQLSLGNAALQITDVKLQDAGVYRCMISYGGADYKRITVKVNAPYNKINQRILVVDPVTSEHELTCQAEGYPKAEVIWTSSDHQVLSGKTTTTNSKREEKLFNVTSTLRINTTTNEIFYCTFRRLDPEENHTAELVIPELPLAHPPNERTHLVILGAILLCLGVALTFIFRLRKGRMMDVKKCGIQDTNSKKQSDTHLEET
In words: flow cytometry, CHOK1SV/human PD-L1 cells.
In the case of B23, the binding result is listed as “binds”.
On the same count and under the same terms, the result for B24 reads “binds”; that for B25, “binds”.
